Experimental findings from PMC2857867 (The FASEB Journal, 2010) are described below.

Test [1] concerns the target T1, VACV strain WR IFNα/βBP B18 (vaccinia virus strain Western Reserve, UniProt P25213 20-351). The test is described as follows: SPR.
The target in test [2] is T1, VACV strain WR IFNα/βBP B18. Briefly: SPR. This is another data set of the same source.

B1: hIL-28A (ligand)
chain: VPVARLHGALPDARGCHIAQFKSLSPQELQAFKRAKDALEESLLLKDCRCHSRLFPRTWDLRQLQVRERPMALEAELALTLKVLEATADTDPALVDVLDQPLHTLHHILSQFRACIQPQPTAGPRTRGRLHHWLYRLQEAPKKESPGCLEASVTFNLFRLLTRDLNCVASGDLCV
Turning to B1, in test [1], the Kd amounted to 14.9 nM, the koff was determined as 0.00364 s⁻¹ and the kon turned out to be 245000 M⁻¹ s⁻¹.

B2: mIL-10 (ligand)
chain: SRGQYSREDNNCTHFPVGQSHMLLELRTAFSQVKTFFQTKDQLDNILLTDSLMQDFKGYLGCQALSEMIQFYLVEVMPQAEKHGPEIKEHLNSLGEKLKTLRMRLRRCHRFLPCENKSKAVEQVKSDFNKLQDQGVYKAMNEFDIFINCIEAYMMIKMKS
Turning to B2, the binding result in test [2] was “binds”.

B3: mIFNβ (ligand)
chain: INYKQLQLQERTNIRKCQELLEQLNGKINLTYRADFKIPMEMTEKMQKSYTAFAIQEMLQNVFLVFRNNFSSTGWNETIVVRLLDELHQQTVFLKTVLEEKQEERLTWEMSSTALHLKSYYWRVQRYLKLMKYNSYAWMVVRAEIFRNFLIIRRLTRNFQN
Regarding B3, in test [1], the Kd is 3.2 nM, the koff was 0.000333 s⁻¹ and the kon was found to be 104000 M⁻¹ s⁻¹.

B4: mIL-28A (ligand)
chain: DPVPRATRLPVEAKDCHIAQFKSLSPKELQAFKKAKDAIEKRLLEKDLRCSSHLFPRAWDLKQLQVQERPKALQAEVALTLKVWENMTDSALATILGQPLHTLSHIHSQLQTCTQLQATAEPRSPSRRLSRWLHRLQEAQSKETPGCLEASVTSNLFRLLTRDLKCVANGDQCV
With B4, in test [1], the equilibrium dissociation constant (Kd) is 13.4 nM, the koff worked out at 0.0112 s⁻¹ and the kon amounted to 832000 M⁻¹ s⁻¹.

B5: mIFNα-A (ligand)
chain: CDLPHTYNLRNKRALKVLAQMRRLPFLSCLKDRQDFGFPLEKVDNQQIQKAQAIPVLRDLTQQTLNLFTSKASSAAWNATLLDSFCNDLHQQLNDLQTCLMQQVGVQEPPLTQEDALLAVRKYFHRITVYLREKKHSPCAWEVVRAEVWRALSSSVNLLPRLSEEKE
In test [1], B5 returned a Kd of 0.455 nM, a koff of 0.000784 s⁻¹ and a kon of 1.72e+06 M⁻¹ s⁻¹.
